From US20250288652A1, “BACTERIOPHAGE LYSINE, CHIMERA THEREOF AND APPLICATION THEREOF” (priority 2021, published 2025)
“And” between values parts separate entries of the source, which are not always exact repeats. Identical values can stand only once.

Key:
Propionibacterium acnes [1] = assay: Minimum inhibitory concentration (MIC) determination, Example 6; assay type: cell-based
Procedure: (§1) The minimal inhibitory concentration (MIC) determination method is as follows. First prepare a colony suspension in 0.9% saline to an OD600 of 0.05 to prepare an inoculum, which corresponds to 10^7 colony-forming units per mL (cfu/mL). The suspension was diluted 20 times in agar-free enhanced Clostridium medium (RCM) to an inoculum of 5*10^5 cfu/mL. Prepare 2-fold serial dilutions of PACL10 or vancomycin with 0.9% saline and add no more than one-tenth of the total culture. Cultures were grown anaerobically at 37° C. for 3 days. The MIC is the lowest concentration of PACL10 or vancomycin at which no growth of P. acnes can be observed with the naked eye. The minimum bactericidal concentration (MBC) was determined by subculturing the above cultures on enhanced Clostridium agar (RCA) plates containing 0.1% Tween-80. MBC is the lowest concentration of PACL10 or vancomycin at which no P. acnes colonies are seen on the enhanced Clostridium agar (RCA) plate.

Propionibacterium acnes [2] = assay: Minimum bactericidal concentration (MBC) determination, Example 6; assay type: cell-based
Procedure: as §1

Propionibacterium acnes [3] = assay: MIC of selected lysin after single-step purification, Example 8; assay type: cell-based; conditions: single-step purified lysin
Procedure: Express PACL 10, 390, 391, 392, 403 and 404 according to the method of Examples 1-4, and perform the following single-step purification: put Escherichia coli BL21 (DE3) containing each recombinant expression plasmid in the self-induction medium incubate at 37° C., 300 rpm for 3 hours, then at 18° C., 300 rpm for 16-18 hours. Cells were collected by centrifugation and lysed by homogenizatoin under high pressure. Clarified lysate from 1 L of E. coli culture medium expressing the protein of interest was loaded onto a 26 mm/200 mm column containing 70 mL of purification resin. The lysin was purified according to the conditions in Table 8-1, and the purity determination of the lyase after single-step purification is shown in FIG. 5. These lysin are used to determine the minimal inhibitory concentration (MIC).
The minimal inhibitory concentration (MIC) determination method is as follows. Propionibacterium acnes is streaked on Fortified Clostridium Agar (Fortified Clostridium Medium RCM with 1.5% agar, RCM was prepared according to the revised recipe, per liter—10 g acid hydrolyzed casein, 10 g beef extract, 3 g yeast extract, 5 g D—glucose, 5 g sodium chloride, 3 g sodium acetate, 0.5 g L-cysteine hydrochloride). Plates were incubated anaerobically at 37° C. for 72 hours. The inoculum for MIC determination was first prepared by resuspending single clones from RCA in 0.9% saline to an OD600 of 0.05, corresponding to 10^7 colony-forming units per milliliter (cfu/mL). The suspension was diluted 20-fold in RCM to an inoculum of 5*10^5 cfu/mL. Two-fold serial dilutions of each lyase were prepared in 0.9% saline and added not to exceed one-tenth of the total culture volume. Cultures were grown anaerobically at 37° C. for 48-72 hours. The MIC is the lowest concentration of lyase at which no growth of P. acnes can be observed with the naked eye.

[4] = test system: biofilm-associated P. acnes strain 10; assay: Killing of biofilm-associated P. acnes (CFU count); assay type: cell-based, Propionibacterium acnes; conditions: strain 10 biofilm, treated overnight at 25° C. under anaerobic conditions
Procedure: Strain 10 with an OD600 of 1.0 was added to a 96-well polystyrene plate to inoculate the biofilm overnight in an anaerobic gas mixture. The supernatant was removed and the wells were gently rinsed with 0.9% NaCl. Biofilm formation medium (RCM+5% glucose) was added to allow biofilm growth overnight in the anaerobic gas mixture. The medium was removed and the wells were gently rinsed with 0.9% NaCl. Biofilms were then treated with buffer or PACL403 overnight at 25° C. under anaerobic conditions. The buffer or PACL403 was removed and the wells were rinsed with 0.9% NaCl. Resuspend in 0.9% NaCl, plate on RCM agar and count biofilm-associated CFU.

P. acnes 34A strain = assay: Time sterilization (time killing) test; assay type: cell-based, Propionibacterium acnes; conditions: 50 mM sodium phosphate pH 6.0
Procedure: The time sterilization test method is as follows. Resuspend the P. acnes 34A strain colony in 0.9% saline to an OD600 of 0.05, which corresponds to 10^7 cfu/mL. The suspension was diluted 10-fold in 50 mM sodium phosphate (pH 6.0) to ˜10^6 cfu/mL. Add 0, 0.5×, 1×, 2× MIC of two-fold serial dilutions of PACL10 to the 34A strain, respectively. Ten-fold serial dilutions (0, 1, 2, 3 log) from the assay were plated on enhanced Clostridium agar (RCA) at each time point and incubated anaerobically at 37° C. for 3 days.

[5] = Cutibacterium acnes, clade IA1, strain 1
[6] = Cutibacterium acnes, clade IA1, strain 5
[7] = Cutibacterium acnes, clade IA1, strain 7
[8] = Cutibacterium acnes, clade IA1, strain 15
[9] = Cutibacterium acnes, clade IA1, strain 27
[10] = Cutibacterium acnes, clade IA2, strain 10
[11] = Cutibacterium acnes, clade IA2, strain 14
[12] = Cutibacterium acnes, clade IA2, strain 17
[13] = Cutibacterium acnes, clade IA2, strain 31
[14] = Cutibacterium acnes, clade IA2, strain 33A
[15] = Cutibacterium acnes, clade IB, strain 13
[16] = Cutibacterium acnes, clade II, strain 34A
[17] = clade IA1, strain 1, listed as #10
[18] = clade IA1, strain 5, listed as #10
[19] = clade IA1, strain 7, listed as #10
[20] = clade IA1, strain 15, listed as #10
[21] = clade IA1, strain 27, listed as #10
[22] = clade IA2, strain 10, listed as #10
[23] = clade IA2, strain 14, listed as #10
[24] = clade IA2, strain 17, listed as #10
[25] = clade IA2, strain 31, listed as #10
[26] = clade IA2, strain 33A, listed as #10
[27] = clade IB, strain 13, listed as #10
[28] = clade II, strain 34A, listed as #10

Molecule: CN[C@H](CC(C)C)C(=O)N[C@H]1C(=O)N[C@@H](CC(N)=O)C(=O)N[C@H]2C(=O)N[C@H]3C(=O)N[C@H](C(=O)N[C@H](C(=O)O)c4cc(O)cc(O)c4-c4cc3ccc4O)[C@H](O)c3ccc(c(Cl)c3)Oc3cc2cc(c3O[C@@H]2O[C@H](CO)[C@@H](O)[C@H](O)[C@H]2O[C@H]2C[C@](C)(N)[C@H](O)[C@H](C)O2)Oc2ccc(cc2Cl)[C@H]1O [Vancomycin, reference compound]
- MIC (Propionibacterium acnes [1]; [5]): 0.5 µg/mL and 0.337 µM
- MIC (Propionibacterium acnes [1]; [6]): 1 µg/mL and 0.673 µM
- MIC (Propionibacterium acnes [1]; [7]): 0.5 µg/mL and 0.337 µM
- MIC (Propionibacterium acnes [1]; [8]): 1 µg/mL and 0.673 µM
- MIC (Propionibacterium acnes [1]; [9]): 1 µg/mL and 0.673 µM
- MIC (Propionibacterium acnes [1]; [10]): 0.5 µg/mL and 0.337 µM
- MIC (Propionibacterium acnes [1]; [11]): 0.5 µg/mL and 0.337 µM
- MIC (Propionibacterium acnes [1]; [12]): 0.5 µg/mL and 0.337 µM
- MIC (Propionibacterium acnes [1]; [13]): 0.5 µg/mL and 0.337 µM
- MIC (Propionibacterium acnes [1]; [14]): 0.5 µg/mL and 0.337 µM
- MIC (Propionibacterium acnes [1]; [15]): 1 µg/mL and 0.673 µM
- MIC (Propionibacterium acnes [1]; [16]): 0.5 µg/mL and 0.337 µM
- MBC (Propionibacterium acnes [2]; [5]): 0.5 µg/mL and 0.337 µM
- MBC (Propionibacterium acnes [2]; [6]): 1 µg/mL and 0.673 µM
- MBC (Propionibacterium acnes [2]; [7]): 1 µg/mL and 0.673 µM
- MBC (Propionibacterium acnes [2]; [8]): 1 µg/mL and 0.673 µM
- MBC (Propionibacterium acnes [2]; [9]): 1 µg/mL and 0.673 µM
- MBC (Propionibacterium acnes [2]; [10]): 1 µg/mL and 0.673 µM
- MBC (Propionibacterium acnes [2]; [11]): 1 µg/mL and 0.673 µM
- MBC (Propionibacterium acnes [2]; [12]): 0.5 µg/mL and 0.337 µM
- MBC (Propionibacterium acnes [2]; [13]): 0.5 µg/mL and 0.337 µM
- MBC (Propionibacterium acnes [2]; [14]): 1 µg/mL and 0.673 µM
- MBC (Propionibacterium acnes [2]; [15]): 1 µg/mL and 0.673 µM
- MBC (Propionibacterium acnes [2]; [16]): 0.5 µg/mL and 0.337 µM

B1: PACL403: chimeric lysin, amino acid sequence SEQ ID NO: 271 (protein)
chain: MTFIQAKHHGGHNNPPVTRLVIHATCPDVGYPSASRAGRAVSTAHYFQETTRPASAHYICDISTTVQCLSEETVGYHAPPNSHSIGIEICADGGSHASFSNPAHAYTREQWLSPQVWPAVERAAMLARGICQRHNIPIRRLSIADVKAGKRGICGHNEVSEAFHQSDHDDPGPYFPWDGFIALVNGHSAPSRQEELTVSDGGEVRTPGQQDTKPSVPTPSLTEIGDQDMNGCYYNLNSKTRTYLIFDSRSGFYHEFSQGNGNGPMSPDYVNPIAKGWDTGSWPAISPGHAKVLKAALDKVRKGI
modifications: PACL403
- MIC of selected lyases relative to Propionibacterium acnes (Propionibacterium acnes [3]; clade IA1, strain 1): 16 µg/mL
- MIC of selected lyases relative to Propionibacterium acnes (Propionibacterium acnes [3]; clade IA1, strain 5): 16 µg/mL
- MIC of selected lyases relative to Propionibacterium acnes (Propionibacterium acnes [3]; clade IA1, strain 7): 16 µg/mL
- MIC of selected lyases relative to Propionibacterium acnes (Propionibacterium acnes [3]; clade IA2, strain 10): 8 µg/mL
- MIC of selected lyases relative to Propionibacterium acnes (Propionibacterium acnes [3]; clade IA2, strain 17): 8 µg/mL
- MIC of selected lyases relative to Propionibacterium acnes (Propionibacterium acnes [3]; clade IA2, strain 33): 8 µg/mL
- MIC of selected lyases relative to Propionibacterium acnes (Propionibacterium acnes [3]; clade II, strain 34): 16 µg/mL
- bactericidal activity against biofilm-associated P. acnes [4]: killed biofilm-associated P. acnes

B2: PACL10: phage lysin, amino acid sequence SEQ ID NO: 10; 29.4 kDa (protein)
chain: MTFIQAAHHSSGSNLPPTRVVIHATCPELGFPRASAKGRAVSTARYFQSAISGGSAHYVVDVGETVQCLAEDVIAWHAPPNSRSLGIEICADGGSATSFKNPNVRYSRAQWLSPQVWPAVLRAAALTRQMCQKYGIPVTKLSASDLKAGKKGICGHVDVSNAWHQSDHDDPGPDFPWAEFMAAVKGGATNPDELELTVSQFSDLTKRLQGMQEQTHHDLGVVQTKLATMDTVKNPRTGAKWSLKDAIWSIWYYVLENRDRIAALEKKVK
modifications: PACL10
notes: 29.4 kDa
- MIC (Propionibacterium acnes [1]; [17]): 6.4 μg/mL and 0.218 μM
- MIC (Propionibacterium acnes [1]; [18]): 12.8 μg/mL and 0.436 μM
- MIC (Propionibacterium acnes [1]; [19]): 6.4 μg/mL and 0.218 μM
- MIC (Propionibacterium acnes [1]; [20]): 6.4 μg/mL and 0.218 μM
- MIC (Propionibacterium acnes [1]; [21]): 12.8 μg/mL and 0.436 μM
- MIC (Propionibacterium acnes [1]; [22]): 6.4 μg/mL and 0.218 μM
- MIC (Propionibacterium acnes [1]; [23]): 6.4 μg/mL and 0.218 μM
- MIC (Propionibacterium acnes [1]; [24]): 6.4 μg/mL and 0.218 μM
- MIC (Propionibacterium acnes [1]; [25]): 12.8 μg/mL and 0.436 μM
- MIC (Propionibacterium acnes [1]; [26]): 12.8 μg/mL and 0.436 μM
- MIC (Propionibacterium acnes [1]; [27]): 12.8 μg/mL and 0.436 μM
- MIC (Propionibacterium acnes [1]; [28]): 6.4 μg/mL and 0.218 μM
- MBC (Propionibacterium acnes [2]; [17]): 25.6 μg/mL and 0.871 μM
- MBC (Propionibacterium acnes [2]; [18]): 12.8 μg/mL and 0.436 μM
- MBC (Propionibacterium acnes [2]; [19]): 12.8 μg/mL and 0.436 μM
- MBC (Propionibacterium acnes [2]; [20]): 25.6 μg/mL and 0.871 μM
- MBC (Propionibacterium acnes [2]; [21]): >25.6 μg/mL and >0.871 μM
- MBC (Propionibacterium acnes [2]; [22]): 12.8 μg/mL and 0.436 μM
- MBC (Propionibacterium acnes [2]; [23]): >25.6 μg/mL and >0.871 μM
- MBC (Propionibacterium acnes [2]; [24]): 25.6 μg/mL and 0.871 μM
- MBC (Propionibacterium acnes [2]; [25]): >25.6 μg/mL and >0.871 μM
- MBC (Propionibacterium acnes [2]; [26]): >25.6 μg/mL and >0.871 μM
- MBC (Propionibacterium acnes [2]; [27]): 25.6 μg/mL and 0.871 μM
- MBC (Propionibacterium acnes [2]; [28]): 6.4 μg/mL and 0.218 μM
- MIC of selected lyases relative to Propionibacterium acnes (Propionibacterium acnes [3]; clade IA1, strain 1): 8 µg/mL
- MIC of selected lyases relative to Propionibacterium acnes (Propionibacterium acnes [3]; clade IA1, strain 5): 8 µg/mL
- MIC of selected lyases relative to Propionibacterium acnes (Propionibacterium acnes [3]; clade IA1, strain 7): 8 µg/mL
- MIC of selected lyases relative to Propionibacterium acnes (Propionibacterium acnes [3]; clade IA2, strain 10): 8 µg/mL
- MIC of selected lyases relative to Propionibacterium acnes (Propionibacterium acnes [3]; clade IA2, strain 17): 8 µg/mL
- MIC of selected lyases relative to Propionibacterium acnes (Propionibacterium acnes [3]; clade IA2, strain 33): 8 µg/mL
- MIC of selected lyases relative to Propionibacterium acnes (Propionibacterium acnes [3]; clade II, strain 34): 8 µg/mL
- time for cfu/mL to drop below the detection limit (P. acnes 34A strain; at 2× MIC 12.8 μg/mL): ≤ 2 h
- time for cfu/mL to drop below the detection limit (P. acnes 34A strain; at MIC 6.4 μg/mL): ≤ 3 h
